Laboratory results taken from PMC4351203.

Legend:
Details in all cases: reference: wild type; sites Y554
[1] = biological target: Hic-5 (endogenous, HEK293T) (UniProt O43294); experiment: anti-FLAG IP, FLAG-peptide elution, Western blot
[2] = biological target: paxillin (endogenous, HEK293T) (UniProt P49023); experiment: anti-FLAG IP, FLAG-peptide elution, Western blot
Hic-5 (Myc-tagged) = Hic-5 (Myc-tagged) (UniProt Q62219); experiment: anti-FLAG co-IP, anti-Myc blot
[3] = biological target: paxillin (Myc-tagged; endogenous in mouse brain) (UniProt Q8VI36); experiment: anti-FLAG co-IP, anti-Myc blot

Measured: binding against the reference

Git1 (FLAG-, YFP-tagged, transfected) (from UniProt Q9Z272) Y554F
stronger: all assays above
